# T1: human TNFR2 (expressed on cells) (human, UniProt P20333 23-461)
# T1 construct: also called hTNFR2; human TNF Receptor 2
# T1 sequence: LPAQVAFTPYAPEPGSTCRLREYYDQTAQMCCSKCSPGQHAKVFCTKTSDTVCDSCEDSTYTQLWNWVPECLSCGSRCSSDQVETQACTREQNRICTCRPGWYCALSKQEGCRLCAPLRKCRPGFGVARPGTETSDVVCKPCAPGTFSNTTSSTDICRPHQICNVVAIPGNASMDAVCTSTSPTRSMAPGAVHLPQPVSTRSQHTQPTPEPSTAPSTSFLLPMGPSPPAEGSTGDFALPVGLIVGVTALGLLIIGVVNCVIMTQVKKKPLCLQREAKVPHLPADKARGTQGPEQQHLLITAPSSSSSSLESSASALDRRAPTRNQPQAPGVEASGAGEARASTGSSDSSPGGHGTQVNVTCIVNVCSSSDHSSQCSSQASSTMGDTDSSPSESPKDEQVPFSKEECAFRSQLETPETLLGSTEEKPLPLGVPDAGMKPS
# T2: ΔCRD3-TNFR2 protein (with CRD3 deletion), on CHO-S cells (human, UniProt P20333 23-461)
# T2 construct: also called CHO-SΔCRD3-TNFR2; TNFR2 lacking CRD3
# T2 sequence: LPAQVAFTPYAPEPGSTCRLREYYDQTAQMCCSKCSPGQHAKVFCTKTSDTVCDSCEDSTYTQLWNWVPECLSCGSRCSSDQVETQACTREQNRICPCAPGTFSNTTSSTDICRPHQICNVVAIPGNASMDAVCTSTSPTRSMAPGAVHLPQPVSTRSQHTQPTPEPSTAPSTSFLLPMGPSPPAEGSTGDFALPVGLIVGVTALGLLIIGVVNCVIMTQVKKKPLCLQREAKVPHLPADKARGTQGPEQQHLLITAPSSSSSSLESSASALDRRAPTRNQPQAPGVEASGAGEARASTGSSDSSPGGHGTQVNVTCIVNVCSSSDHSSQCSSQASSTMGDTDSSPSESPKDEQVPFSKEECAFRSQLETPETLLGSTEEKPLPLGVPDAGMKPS
# T3: mouse TNFR2 (on transfected CHO cells) (mouse, UniProt P25119 23-474)
# T3 construct: also called mTNFR2
# T3 sequence: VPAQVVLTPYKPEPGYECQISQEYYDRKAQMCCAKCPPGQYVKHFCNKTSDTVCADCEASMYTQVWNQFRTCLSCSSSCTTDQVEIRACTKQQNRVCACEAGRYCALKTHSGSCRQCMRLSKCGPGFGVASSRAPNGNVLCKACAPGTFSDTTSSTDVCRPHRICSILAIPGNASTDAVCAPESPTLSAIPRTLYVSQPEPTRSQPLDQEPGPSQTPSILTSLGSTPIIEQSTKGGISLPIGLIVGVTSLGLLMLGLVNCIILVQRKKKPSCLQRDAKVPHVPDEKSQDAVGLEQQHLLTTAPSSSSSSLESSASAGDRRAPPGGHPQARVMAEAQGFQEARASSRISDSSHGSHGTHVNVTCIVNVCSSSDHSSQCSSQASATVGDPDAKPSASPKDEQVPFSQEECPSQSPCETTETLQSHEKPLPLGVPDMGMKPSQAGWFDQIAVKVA
# T4: dog (Canine) TNFR2 (on transfected CHO cells) (dog)
# T4 construct: also called dTNFR2
# T4 chain: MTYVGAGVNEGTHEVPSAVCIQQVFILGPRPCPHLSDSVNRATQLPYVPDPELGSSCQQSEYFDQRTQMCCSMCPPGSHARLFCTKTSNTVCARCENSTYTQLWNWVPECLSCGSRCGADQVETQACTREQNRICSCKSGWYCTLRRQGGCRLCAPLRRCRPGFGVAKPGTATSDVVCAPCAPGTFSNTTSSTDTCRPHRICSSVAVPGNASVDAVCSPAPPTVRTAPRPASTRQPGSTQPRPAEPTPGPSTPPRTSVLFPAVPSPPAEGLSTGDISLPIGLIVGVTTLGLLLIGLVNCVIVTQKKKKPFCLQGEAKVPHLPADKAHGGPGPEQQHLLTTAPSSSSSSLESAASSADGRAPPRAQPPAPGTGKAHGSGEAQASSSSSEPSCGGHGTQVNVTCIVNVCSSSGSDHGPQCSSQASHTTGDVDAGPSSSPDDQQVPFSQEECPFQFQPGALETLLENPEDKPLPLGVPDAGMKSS
# How the values were obtained:
# [1] = biological target: T1, human TNFR2 (expressed on cells); assay: flow cytometry competition, CHO cells with human TNFR2, antibody 0.625 µg/mL, Biotin-hTNFα 0.5 µg/mL
# Procedure: 30 μl of Biotin-hTNFα (Acro Biosystems, Cat #: TNA-H82E1) was added to each well (with a final concentration of 0.5 μg/mL in each well). The cells with Biotin-hTNFα and the antibodies were incubated at 4° C. for 30 minutes.
# The signals for AF647 and PE were determined by flow cytometry (Thermo Attune NX).
# [2] = biological target: T2, ΔCRD3-TNFR2 protein (with CRD3 …); assay: FACS on CHO-S cells with ΔCRD3-TNFR2, AF647 anti-human IgG Fc secondary
# From the text: TNFR2 has four cysteine rich domains (CRD). In another experiment, FACS was used to detect the binding of anti-hTNFR2 antibodies to TNFR2 proteins with different structural domains. Secondary antibody (Alexa Fluor® 647 AffiniPure F(ab′) 2 Fragment Goat Anti-Human IgG, Fcγ fragment specific, Jackson ImmunoResearch Laboratories, Inc., Cat #: 151524) was used. The fluorescence-labeled secondary antibody can attach to the Fc region of the anti-hTNFR2 antibodies so that the anti-hTNFR2 antibodies that are bound to the ΔCRD cells can be detected by FACS. Specifically, ΔCRD1-TNFR2 protein (with CRD1 deleteion), ΔCRD2-TNFR2 protein (with CRD2 deleteion), ΔCRD3-TNFR2 protein (with CRD3 deleteion) or ΔCRD4-TNFR2 protein (with CRD4 deleteion) were expressed in CHO-S cells respectively, and then the binding between the cells and different anti-hTNFR2 antibodies was detected.
# [3] = biological target: T3, mouse TNFR2 (on transfected CHO cells); assay: flow cytometry on transfected CHO cells
# Procedure: (§1) 30 μl CHO cells (1×10⁵ cells) were added to each well. 30 μl purified anti-TNFR2 antibodies (10 μg/mL) (as listed in Table 4) were added to each well and were incubated at 4° C. for 30 minutes.
# (§2) After two washes with PBS (1600 rmp, 6 min), 50 μl of Alexa Fluor labeled anti-human IgG Fc antibody […] was added into each well 1:500 dilution, incubated at 4° C. for 15 minutes, followed by a PBS wash (1200 rmp, 5 min). The signals for AF647 were detected by flow cytometry.
# [4] = biological target: T4, dog (Canine) TNFR2 (on transfected CHO …); assay: flow cytometry on transfected CHO cells
# Procedure: as §1, §2
Binder,percentage of tested cells that had Streptavidin signals [1] [%],positive rate of binding (% of cells) [2] [%],binding result [3],binding result [4]
"BC-1A8-IgG1 (antibody, V domains shown, Fully human VH/VL joined to the human IgG1 subtype, kappa light chain (RenMab mice)) VH: QVQLQQSGPGLVKPSQTLSLTCAISGDSVSSNSAAWNWIRQSPSRGLEWLGRTYYRSKWYNDYALSVKSRITINPETSKNQFSLQLNSVTPEDTAVYYCAREDGVGGTKDYFDYWGQGTLVTVSS VL: DIQMTQSPSSLSASVGDRVTITCQASQDIDNYLNWYQQKPGKAPKLLIYDVSNLEIGVPSRFSGSGSGTDFTFTISSLQPEDIATYYCQQYDNLPLTFGQGTRLEIK",58.6,0.52,no binding (tested: 10 µg/mL),no binding (tested: 10 µg/mL)
"BC-1F10-IgG1 (antibody, V domains shown, Human VH/VL joined to the human IgG1 subtype) VH: QVQLQQWGAGLLKPSETLSLICAVYDGSFSGDYWSWIRQPPGKGLEWIGEINHSGSTNYNPSLKSRVTISVDTSKNQFSLKLSSVTAADTAVYYCARGHWNYDYYYGMDVWGQGTTVTVSS VL: not shown",60.2,23.1,no binding (tested: 10 µg/mL),no binding (tested: 10 µg/mL)
"BC-1C3-IgG1 (antibody, V domains shown, Human VH/VL joined to the human IgG1 subtype) VH: QVQLVESGGGVVHPGKSLRLSCAASGFTFNIYGMHWVRQAPGKGLEWVALISYDGNDKYFADSVKGRFTISRDNSKNTLYLQMNSLRAEDTAVYYCAKAVDTAVVTFFDYWGQGTLVTVSS VL: EIVMTQSPVTLSVSPGERATLSCRASQSVSSNLAWYQQKPGQAPRLLIYSASTRATGIPARFSGSGSGTEFTLTISSLQSEDLAVYYCQQYSNWPFTFGPGTKVDIK",77.3,0.81,no binding (tested: 10 µg/mL),no binding (tested: 10 µg/mL)

# Further lines, results first:
percentage of tested cells that had Streptavidin signals [1] [%],positive rate of binding (% of cells) [2] [%],binding result [3],binding result [4],Binder
61.9,0.47,no binding (tested: 10 µg/mL),no binding (tested: 10 µg/mL),"BC-1F4-IgG1 (antibody, V domains shown, Human VH/VL joined to the human IgG1 subtype) VH: QVQLQQSGPGLVKPSQTLSLTCAISGDSVSSDSSAWNWIRQSPSRGLEWLGRTYYRSKWYNDYTVSVKSRITINPDTSKNQFSLQLNSVTPEDTAVYYCAREDGVGGTKDYFDYWGQGTLVTVSS VL: DIQMTQSPSSLSASVGDRVTITCQASQDISNYLNWYQQKPGKAPKLLIYDASNLETGVPSRFSGSGSGTDFTFTINSLQPEDFATYFCQQYDNLPITFGQGTRLEIK"
80.4,–,no binding (tested: 10 µg/mL),no binding (tested: 10 µg/mL),"BC-1B6-IgG1 (antibody, V domains shown, Human VH/VL joined to the human IgG1 subtype) VH: QVQLVESGGGVVQPGRSLRLSCAASGFTFSNFGMHWVRQAPGKGLEWVAVIWYEGSDKYYADSVKGRFTISRDNSKNTLYLQMNSLRAEDTAVYYCARDSSWGFLLYGMDVWGQGTTVTVSS VL: DVVMTQSPLSLPVTLGQPASISCRSSRSLEYSDGNTYLNWFQQRPGQSPRRLIYKVSNRDSGVPDRFSGSGSGTAFTLKISGVEAEDVGVYYCMQGTHWPPTFGGGTKVEIK"

# Source: patent US20250019454A1 (BIOCYTOGEN PHARMACEUTICALS BEIJING, published 2025)
